From patent US20230312724A1 (KADMON, published 2023)

Experiments:
[1] = molecular target: T1, mouse B7-H4-his (mouse, UniProt Q7TSP5 25-257); experiment: SPR (Biacore)
T1 construct: also called mB7-H4-his; mB7-H4-His; not shown: his tag
T1 sequence: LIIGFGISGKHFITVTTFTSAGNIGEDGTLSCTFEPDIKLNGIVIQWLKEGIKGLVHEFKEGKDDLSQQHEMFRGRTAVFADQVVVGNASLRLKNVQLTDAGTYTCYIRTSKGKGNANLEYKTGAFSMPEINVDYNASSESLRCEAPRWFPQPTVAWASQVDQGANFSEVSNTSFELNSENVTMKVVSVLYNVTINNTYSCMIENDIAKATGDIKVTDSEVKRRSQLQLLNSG

[2] = molecular target: T2, human B7-H4-his (human, UniProt Q7Z7D3 25-259); experiment: SPR (Biacore)
T2 construct: also called hB7-H4-his; hB7-H4 his; not shown: his tag
T2 sequence: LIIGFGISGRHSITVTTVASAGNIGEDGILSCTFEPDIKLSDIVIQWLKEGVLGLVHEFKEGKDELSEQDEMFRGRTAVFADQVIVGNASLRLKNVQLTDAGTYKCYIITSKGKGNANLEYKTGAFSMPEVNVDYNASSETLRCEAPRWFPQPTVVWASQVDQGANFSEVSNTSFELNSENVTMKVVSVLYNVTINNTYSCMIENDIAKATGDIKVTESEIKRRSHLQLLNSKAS
Protocol: (§1) Surface plasmon resonance experiments were performed using a Biacore T200 instrument equipped with CM5 sensor chips. The system was equilibrated in running buffer HBS-EP pH 7.4. The ligands were immobilized using amine-coupling chemistry. The surfaces of flow cells one through four were activated for 5 min using an amine coupling kit at a flow rate of […]. The ligands (human B7-H4-Fc, human B7-H4-hism and mouse B7-H4-Fc; at a concentration of 5 μg/ml in 10 mM sodium acetate, pH 5.0) were immobilized at a density of 50-100 RU on flow cell 2, 3, 4 respectively. Flow cell 1 was left blank to serve as a reference surface. All flow cell surfaces were blocked with a 5 min injection of 1 M ethanolamine, pH 8.0. To collect kinetic binding data, the respective analyte (diluted in 1×HBS-EP buffer, pH 7.4) was injected over the four flow cells at concentrations of 100 nM to 0.1 nM at a flow rate of […] and at a temperature of 25° C. The protein complex was allowed to associate and dissociate for 180 seconds and 1000 or 1200 seconds, respectively. The surfaces were regenerated with a 30 second injection of 1.5 M NaCl/0.05 M NaOH. The data were fit to a simple 1:1 interaction model using the Langmuir fit option available within the Biaevaluaton software
(§2) The kinetics for binding of the different antibodies to their targets were examined using Biacore analysis.

[3] = molecular target: T3, mouse B7-H4-Fc (mouse; human); experiment: ELISA, coated mB7-H4-Fc
T3 construct: also called mB7-H4-Fc; mB7-H4-hFc
Protocol: (§3) About 1-2 μg/ml of human or mouse B7-H4-Fc (or his-tagged) was immobilized on ELISA plates (Immuno 2HB, Thermo scientific, cat #3455) at 4° C. overnight. After blocking the plates with 3% PBS+milk, serial diluted antibodies were added to the blocked plates and incubated at RT for 1-1.5 h. After washing the plates with PBS-T (0.05%), horse radish peroxidase (HRP)-conjugated antibody targeting the hFab was added to the plate. Signals were developed by adding 3,3′,5,5′-Tetramethylbenzidine (TMB (followed 1N of H₂SO₄ to stop the reaction. The OD at 450 nm was read by ELISA plate reader (Infinite M1000 from TECAN). GraphPad from Prism was used to plot OD450 vs. antibody concentration curve and to calculate the EC50 values.

[4] = molecular target: T4, human B7-H4-Fc (human); experiment: ELISA, coated hB7-H4-Fc
T4 construct: also called hB7-H4-Fc; hB7-H4 Fc
Protocol: as §3

[5] = molecular target: T3, mouse B7-H4-Fc; experiment: SPR (Biacore)
[6] = molecular target: T5, IgV domain of human B7-H4-Fc (human); experiment: ELISA, coated hB7-H4 IgV domain
T5 construct: also called hB7-H4 IgV domain
Protocol: as §3

[7] = molecular target: T6, IgV domain of mouse B7-H4-Fc (mouse; human); experiment: ELISA, coated mB7-H4 IgV domain
T6 construct: also called mB7-H4 IgV domain
Protocol: as §3

[8] = molecular target: T4, human B7-H4-Fc; experiment: SPR (Biacore)
Protocol: as §1, §2

T5 sequence (chain, as listed by the source): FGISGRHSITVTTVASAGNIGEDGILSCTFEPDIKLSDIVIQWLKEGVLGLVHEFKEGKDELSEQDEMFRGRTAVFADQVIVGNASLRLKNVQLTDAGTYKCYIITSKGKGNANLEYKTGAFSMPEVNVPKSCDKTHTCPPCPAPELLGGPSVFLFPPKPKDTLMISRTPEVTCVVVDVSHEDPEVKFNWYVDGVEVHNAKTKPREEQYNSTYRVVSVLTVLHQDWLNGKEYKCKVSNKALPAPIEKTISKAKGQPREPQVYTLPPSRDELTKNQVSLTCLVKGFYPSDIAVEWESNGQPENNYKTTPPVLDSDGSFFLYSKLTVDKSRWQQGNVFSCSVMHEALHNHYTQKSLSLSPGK
T3 sequence (chain, as listed by the source): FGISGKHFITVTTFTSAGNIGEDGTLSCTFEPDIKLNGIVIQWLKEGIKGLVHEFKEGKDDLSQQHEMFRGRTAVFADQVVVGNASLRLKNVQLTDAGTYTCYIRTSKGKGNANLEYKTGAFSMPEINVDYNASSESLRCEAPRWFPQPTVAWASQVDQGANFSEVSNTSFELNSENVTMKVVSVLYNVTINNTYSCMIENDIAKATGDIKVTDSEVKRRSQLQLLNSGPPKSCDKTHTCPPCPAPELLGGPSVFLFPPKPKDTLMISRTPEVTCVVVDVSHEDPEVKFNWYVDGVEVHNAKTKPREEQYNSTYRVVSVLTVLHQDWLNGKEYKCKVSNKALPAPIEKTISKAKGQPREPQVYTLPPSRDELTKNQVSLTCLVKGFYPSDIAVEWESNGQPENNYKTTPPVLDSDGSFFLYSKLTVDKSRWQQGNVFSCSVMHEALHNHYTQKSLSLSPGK
T6 sequence (chain, as listed by the source): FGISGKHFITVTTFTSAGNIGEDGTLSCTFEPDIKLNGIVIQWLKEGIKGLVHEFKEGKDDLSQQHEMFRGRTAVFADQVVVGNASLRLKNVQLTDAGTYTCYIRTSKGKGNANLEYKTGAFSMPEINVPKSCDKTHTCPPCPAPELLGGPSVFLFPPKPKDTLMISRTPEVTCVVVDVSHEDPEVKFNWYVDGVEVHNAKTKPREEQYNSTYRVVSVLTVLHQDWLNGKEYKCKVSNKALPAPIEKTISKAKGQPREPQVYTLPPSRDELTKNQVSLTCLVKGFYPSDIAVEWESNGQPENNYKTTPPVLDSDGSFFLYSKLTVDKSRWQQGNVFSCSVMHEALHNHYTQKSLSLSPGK
T4 sequence (chain, as listed by the source): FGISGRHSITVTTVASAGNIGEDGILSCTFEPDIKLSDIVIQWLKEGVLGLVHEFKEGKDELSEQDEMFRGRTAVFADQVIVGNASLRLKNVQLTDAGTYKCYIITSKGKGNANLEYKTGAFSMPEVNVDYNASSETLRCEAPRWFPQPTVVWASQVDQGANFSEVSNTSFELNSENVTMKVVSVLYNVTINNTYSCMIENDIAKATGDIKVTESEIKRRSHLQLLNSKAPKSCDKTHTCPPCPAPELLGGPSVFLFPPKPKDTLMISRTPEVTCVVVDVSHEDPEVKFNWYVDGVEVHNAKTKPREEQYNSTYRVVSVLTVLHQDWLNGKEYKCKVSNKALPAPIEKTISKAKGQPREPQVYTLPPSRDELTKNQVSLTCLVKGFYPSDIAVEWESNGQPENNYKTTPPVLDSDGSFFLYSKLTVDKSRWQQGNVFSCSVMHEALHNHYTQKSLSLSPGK

B1: 30G4/30G4 (antibody, human IgG1, V domains shown)
VH: QVQLVQSGAEVKKPGASVKVSCKASGYTFSSYYMHWVRQAPGQGLEWMGWMNPNSGDTGYAQKFQGRVTMTRDTSTSTVYMELSSLRSEDTAVYYCARVPETGGMDVWGQGTTVTVSS
VL: DIVMTQSPLSLPVTPGEPASISCRSSQSLLHSNGYNYLDWYLQKPGQSPQLLIYGASSLHSGVPDRFSGSGSGTDFTLKISRVEAEDVGVYYCMQGTHWPPTFGQGTKVEIK
[1]
  Kd: 6.38 nM
[2]
  Kd: 6.05 nM
[3]
  binding result: binds

B2: 24F4/24F4 (antibody, human IgG1, V domains shown)
VH: QVQLVQSGAEVKKPGSSVKVSCKASGYRFTGDYIHWVRQAPGQGLEWMGWMNPNSGNTGLAQKFQGRVTITADESTSTAYMELSSLRSEDTAVYYCARVLGFSGGMDVWGQGTTVTVSS
VL: DIVMTQSPLSLPVTPGEPASISCRSSQSLLHSNGYNYLDWYLQKPGQSPQLLIYAASSLRSGVPDRFSGSGSGTDFTLKISRVEAEDVGVYYCMQGTHWPPTFGQGTKLEIK
[1]
  Kd: 29.2 nM
[2]
  Kd: 194 nM
[3]
  binding result: binds

B3: 5F4/5F4 (antibody, human IgG1, V domains shown)
VH: EVQLLESGGGLVKPGGSLRLSCAASGFTFSSYAMHWVRQAPGKGLEWVSAIGGSGRTTYYADSVKGRFTISRDDSKNTLYLQMNSLKTEDTAVYYCARERGYSYGQIDYWGQGTLVTVSS
VL: DIVMTQSPLSLPVTPGEPASISCRSSQSLLHSNGYNYLDWYLQKPGQSPQLLIYAASSLQSGVPDRFSGSGSGTDFTLKISRVEAEDVGVYYCMQGAHWPLTFGQGTKVEIK
[4]
  EC50 (read off the curve): ~0.1 nM
[5]
  Kd: 11.9 nM
[1]
  Kd: 15 nM
[6]
  binding result: no binding (tested: 20 nM)
[7]
  binding result: no binding (tested: 20 nM)
[8]
  Kd: 15 nM
[2]
  Kd: 16.6 nM
[3]
  EC50 (read off the curve): ~0.1 nM

B4: 9E1/9E1 (antibody, V domains shown)
VH: QVQLVQSGAEVKKPGASVKVSCKASGYTFTGYYLHWVRQAPGQGLEWMGWINPNSGGTNSAQRFQGRVTMTRDTSTSTVYMELSSLRSEDTAVYYCARVRGYEGGMDVWGQGTTVTVSS
VL: not shown
[5]
  Kd: 10.6 nM
[1]
  Kd: 12.4 nM
[6]
  binding result: no binding (tested: 20 nM)
[7]
  binding result: no binding (tested: 20 nM)
[8]
  Kd: 13.7 nM
[2]
  Kd: 7.91 nM

B5: 15B11/15B11 (antibody, V domains shown)
VH: QVQLVQSGAEVKKPGASVKVSCKASGYTFTGYYIHWVRQAPGQGLEWMGWMNPHSGHTGYAQNLQGRVTMTRDTSTSTVYMELSSLRSEDTAVYYCARVKVTTGFDYWGQGTLVTVSS
VL: not shown
[5]
  Kd: 3.55 nM
[1]
  Kd: 6.17 nM
[8]
  Kd: 4.26 nM
[2]
  Kd: 5.17 nM

B6: 5G6/5G6 (antibody, human IgG1, V domains shown)
VH: QVQLVQSGAEVKKPGASVKVSCKASGYTFTSYYMHWVRQAPGQGLEWLGWVNPNTGTTRFAQKFQGRVTMTRDTSTSTVYMELSSLRSEDTAVYYCARDANYYYGMDVWGQGTMVTVSS
VL: DIVMTQSPDSLAVSLGERATINCKSSQSVLYSSNNKNYLAWYQQKPGQPPKLLIYWASTRESGVPDRFSGSGSGTDFTLTISSLQAEDVATYYCQKYNSALPITFGQGTRLEIK
[5]
  Kd: 13.1 nM
[1]
  Kd: 7.83 nM
[6]
  binding result: no binding (tested: 20 nM)
[7]
  binding result: no binding (tested: 20 nM)
[8]
  Kd: 12.1 nM
[2]
  Kd: 5.19 nM
